Positions count from the first letter of the chain named. Names may count otherwise.
B1: E35D/M47L/L85Q: variant CD80 IgV-Fc, IgV SEQ ID NO:418 (protein)
chain: VIHVTKEVKEVATLSCGHNVSVEELAQTRIYWQKDKKMVLTMMSGDLNIWPEYKNRTIFDITNNLSIVILALRPSDEGTYECVVQKYEKDAFKREHLAEVTLSVKAD
B2: Q33L/E35D/M47I/N48D/A71G (protein, UniProt P33681 35-288, looked up, variant Q33L E35D M47I N48D A71G)
T-lymphocyte activation …: VIHVTKEVKEVATLSCGHNVSVEELAQTRIYWLKDKKMVLTMMSGDIDIWPEYKNRTIFDITNNLSIVILGLRPSDEGTYECVVLKYEKDAFKREHLAEVTLSVKADFPTPSISDFEIPTSNIRRIICSTSGGFPEPHLSWLENGEELNAINTTVSQDPETELYAVSSKLDFNMTTNHSFMCLIKYGHLRVNQTFNWNTTKQEHFPDNLLPSWAITLISVNGIFVICCLTYCFAPRCRERRRNERLRRESVRPV
B3: R29H/E35D/M43V/M47I/I49V (protein, UniProt P33681 35-288, looked up, variant R29H E35D M43V M47I I49V)
T-lymphocyte activation …: B2 T-lymphocyte activation … with R29H, L33Q, M43V, D48N, I49V, G71A
B4: A26E/E35D/M47L/A71G (protein)
chain: B1 chain with A26E, A71G, Q85L
B5: E35D/M47I/Y87Q/K89E (protein, UniProt P33681 35-288, looked up, variant E35D M47I Y87Q K89E)
T-lymphocyte activation …: B2 T-lymphocyte activation … with L33Q, D48N, G71A, Y87Q, K89E
B6: V22A/E35D/M47I/Y87N (protein)
chain: VIHVTKEVKEVATLSCGHNVSAEELAQTRIYWQKDKKMVLTMMSGDINIWPEYKNRTIFDITNNLSIVILALRPSDEGTYECVVLKNEKDAFKREHLAEVTLSVKADFPTPSISDFETPTSNIRRIICSTSGGFPEPHLSWLENGEELNAINTTVSQDPETELYAVSSKLDFNMTTNHSFMCLIKYGHLRVNQTFNWNTTKQEHFPDN
modifications: CD80 v253 ECD
B7: H18Y/A26E/E35D/M47L/L85Q/D90G (protein, UniProt P33681 35-288, looked up, variant H18Y A26E E35D M47L L85Q D90G)
T-lymphocyte activation …: B2 T-lymphocyte activation … with H18Y, A26E, L33Q, I47L, D48N, G71A, L85Q, D90G
B8: E35D/M47L/A71G/L85Q (protein, UniProt P33681 35-288, looked up, variant E35D M47L A71G L85Q)
T-lymphocyte activation …: B2 T-lymphocyte activation … with L33Q, I47L, D48N, L85Q
B9: E35D/M47V/A71G/E88D (protein, UniProt P33681 35-288, looked up, variant E35D M47V A71G E88D)
T-lymphocyte activation …: B2 T-lymphocyte activation … with L33Q, I47V, D48N, E88D
B10: E35D/A71G (protein, UniProt P33681 35-288, looked up, variant E35D A71G)
T-lymphocyte activation …: B2 T-lymphocyte activation … with L33Q, I47M, D48N
B11: E35D/M47V/A71G (protein, UniProt P33681 35-288, looked up, variant E35D M47V A71G)
T-lymphocyte activation …: B2 T-lymphocyte activation … with L33Q, I47V, D48N
B12: I30V/E35D/M47V/A71G/A91V (protein, UniProt P33681 35-288, looked up, variant I30V E35D M47V A71G A91V)
T-lymphocyte activation …: B2 T-lymphocyte activation … with I30V, L33Q, I47V, D48N, A91V
B13: V22D/E35D/M47L/L85Q (protein)
chain: B6 chain with A22D, I47L, L85Q, N87Y
modifications: CD80 v261 ECD
B14: E35D/T41S/M43I/M47L/A71G (protein, UniProt P33681 35-288, looked up, variant E35D T41S M43I M47L A71G)
T-lymphocyte activation …: B2 T-lymphocyte activation … with L33Q, T41S, M43I, I47L, D48N
B15: V22L/Q27H/E35D/M47I/A71G (protein)
chain: B6 chain with A22L, Q27H, A71G, N87Y
modifications: CD80 v274 ECD
B16: E35D/M43I/M47V/K89N (protein, UniProt P33681 35-288, looked up, variant E35D M43I M47V K89N)
T-lymphocyte activation …: B2 T-lymphocyte activation … with L33Q, M43I, I47V, D48N, G71A, K89N
B17: Q33R/E35D/M47V/N48K/L85M/F92L (protein, UniProt P33681 35-288, looked up, variant Q33R E35D M47V N48K L85M F92L)
T-lymphocyte activation …: B2 T-lymphocyte activation … with L33R, I47V, D48K, G71A, L85M, F92L
modifications: Fc fusion

Experiments:
CD28 [1] = target: T1, CD28 (Homo sapiens, UniProt P10747); experiment: Jurkat/IL2 + K562/OKT3/PD-L1 reporter assay; type: cell-based; set-up: host or cells: Jurkat cells expressing an IL-2-luciferase reporter; settings: K562/OKT3/PD-L1 aAPC, 50 nM; for Fold Increase over WT CD80-IgV-Fe / Relative Luciferase Units (RLU), CD80-Fe Cone 50 nM: Table E8
CD28 [2] = target: T1, CD28; experiment: Flow binding to Jurkat/IL2 reporter cells (CD28); set-up: host or cells: Jurkat cells expressing an IL-2-luciferase reporter; settings: for CD28 Fold change to WT CD80: MFI ratio to WT CD80 ECD-Fc (R&D) at 33.3 nM
How it was run: (§1)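 Binding EC50 and PE mean fluorescence intensity derived by flow cytometry using PE-labelled anti-human Fc secondary. Target cells were CTLA4- or PD-L1-transfected CHO lines and CD28-expressing Jurkat/IL2 reporter cells, stained with fusion proteins on ice for 45 min following BSA blocking.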

huPD-L1 = huPD-L1 (Homo sapiens, UniProt Q9NZQ7); experiment: Flow binding to CHO cells stably expressing PD-L1; set-up: huCTLA4 and huPD-L1, full-length mammalian surface expression constructs were generated; expressed in transfected cells; host or cells: CHO cells, lentiviral transduction, sorted to >98% purity; settings: for PD-L1 Fold change to WT CD80: MFI ratio to WT CD80 ECD-Fc (R&D) at 33.3 nM; for Ratio of PDL1:CD28: binding to PD-L1 compared to binding to CD28
Sequence of huPD-L1 (Q9NZQ7 19-290): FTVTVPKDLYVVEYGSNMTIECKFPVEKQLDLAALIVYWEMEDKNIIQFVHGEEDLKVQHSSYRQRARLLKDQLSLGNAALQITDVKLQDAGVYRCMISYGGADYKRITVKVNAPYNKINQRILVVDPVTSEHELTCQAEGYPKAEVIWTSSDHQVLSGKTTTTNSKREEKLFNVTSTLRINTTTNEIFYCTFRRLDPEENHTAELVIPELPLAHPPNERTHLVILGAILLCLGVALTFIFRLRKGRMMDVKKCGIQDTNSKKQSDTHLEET
How it was run: as §1

huCTLA4 = huCTLA4 (Homo sapiens, UniProt P16410); experiment: Flow binding to CHO cells stably expressing CTLA4; set-up: huCTLA4 and huPD-L1, full-length mammalian surface expression constructs were generated; expressed in transfected cells; host or cells: CHO cells, lentiviral transduction, sorted to >98% purity; settings: for CTLA4 Fold change to WT CD80: MFI ratio to WT CD80 ECD-Fc (R&D) at 33.3 nM
Sequence of huCTLA4 (P16410 36-223): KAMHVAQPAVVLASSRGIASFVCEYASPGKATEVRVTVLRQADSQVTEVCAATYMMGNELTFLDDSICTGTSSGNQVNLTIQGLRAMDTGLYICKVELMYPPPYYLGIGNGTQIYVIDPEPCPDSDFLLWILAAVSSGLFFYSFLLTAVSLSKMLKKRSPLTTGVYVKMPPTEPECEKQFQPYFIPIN
How it was run: as §1

CD28 [3] = target: T1, CD28; experiment: Jurkat/IL2 + CHO/OKT3 +/- PD-L1 reporter assay: PD-L1-dependent CD28 costimulation; type: cell-based; set-up: host or cells: Jurkat cells expressing an IL-2-luciferase reporter; settings: Table E22; Jurkat/IL2 + CHO/OKT3/PD-L1; CD80 Conc 5.0 nM
How it was run: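 Readout is relative luminescence from lysed cocultures: test protein given 15 min at room temperature to Jurkat cells before adding CHO artificial APCs displaying OKT3 alone or OKT3 plus PD-L1, then 5 h at 37 °C, 5% CO2.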

[4] = Table E4, CHO cells stably expressing PD-L1
[5] = Table E4, 33.3 nM variant CD80 IgV-Fc, CHO cells stably expressing CTLA4

Molecule	Relative Luciferase Units (RLU), CD80-Fe Cone 50 nM (CD28 [1])	CD28 MFI at 33.3 nM (CD28 [2]; Table E4, Jurkat cells (CD28))	PD-L1 MFI at 33.3 nM (huPD-L1; [4])	CTLA4 MFI at 33.3 nM (huCTLA4; [5])	other results
B1					Relative Luciferase Units (RLU), CD80-Fc Conc. 50 nM (CD28 [1]; Table E7): 2852 RLU; CD28 MFI at 33.3 nM (CD28 [2]; Table E3): 646; CD28 MFI at 33.3 nM (CD28 [2]; Table E19, Jurkats (CD28)): 46.3; PD-L1 MFI at 33.3 nM (huPD-L1; Table E3): 33200; PD-L1 MFI at 33.3 nM (huPD-L1; Table E19, CHO cells stably expressing PD-L1): 6097; CTLA4 MFI at 33.3 nM (huCTLA4; Table E3, 33.3 nM): 336179; CTLA4 MFI at 33.3 nM (huCTLA4; Table E19, CHO cells stably expressing CTLA4, 33.3 nM): 12909
B2	213 RLU	644	31151	116798	Fold Increase over WT CD80-IgV-Fe (CD28 [1]): 1.0; CD28 Fold change to WT CD80 (CD28 [2]; Table E4): 0.04; PD-L1 Fold change to WT CD80 (huPD-L1; Table E4): 2.62; Ratio of PDL1:CD28 (huPD-L1; Table E4): 48; CTLA4 Fold change to WT CD80 (huCTLA4; Table E4): 0.74
B3	227 RLU	336	1590	4694	Fold Increase over WT CD80-IgV-Fe (CD28 [1]): 1.1; CD28 Fold change to WT CD80 (CD28 [2]; Table E4): 0.02; PD-L1 Fold change to WT CD80 (huPD-L1; Table E4): 0.13; Ratio of PDL1:CD28 (huPD-L1; Table E4): 5; CTLA4 Fold change to WT CD80 (huCTLA4; Table E4): 0.03
B4	1748 RLU	2161			Relative Luciferase Units (RLU), CD80 Conc 5.0 nM (CD28 [3]): 766 RLU; CD28 MFI at 33.3 nM (CD28 [2]; Table E20, Jurkats (CD28)): 236
B5	1581 RLU	15452	29803		
B6	1388 RLU	15299		245711	
B7	1506 RLU	3540		230588	
B8	1256 RLU	1436			
B9	1216 RLU	6237	37146		
B10	1190 RLU		34149	184204	
B11	1190 RLU	6360	36216		
B12	1503 RLU			204756	
B13	1142 RLU	542			
B14	1535 RLU			209034	
B15	1123 RLU	7269		151600	
B16	1094 RLU		19250	278391	
B17	215 RLU			2680	

From patent US20220177587A1, “METHODS AND USES OF VARIANT CD80 FUSION PROTEINS AND RELATED CONSTRUCTS” (Alpine Immune Sciences, Inc., priority 2018, published 2022)
